Experimental data from patent publication US11767343B2, “Peptide probe for recognition of G-quadruplex and use thereof in detection of G-quadruplex in cell” (Changzhi Medical College, priority 2020, dated 2023).

Biological target: TB-1
Test: ELISA binding of G4P to immobilized biotinylated oligonucleotide
Settings: G4, Bulge, read-out: Kd (nM) ± SD

B1: G4P: Polypeptide probe: two RHAU23 G4-binding domains, linker of three GTGSGA hexapeptides, C-terminal 3xFLAG tag, N-terminal HIS tag; SEQ ID NO: 4 (protein)
chain: MGSSHHHHHHSSGLVPRGSHMHPGHLKGREIGMWYAKKQGQKNKGTGSGAGTGSGAGTGSGAHPGHLKGREIGMWYAKKQGQKNKGTGSGADYKDHDGDYKDHDIDYKDDDDK
modifications: Fully synthetic
Kd: 0.74 ± 0.05 nM
